Data reported in the supplement of paper PMC9112550, “Optimization of the antimicrobial peptide Bac7 by deep mutational scanning” (BMC Biology, 2022).

Test system: Escherichia coli TOP10
Test: shrunken log2 fold change of peptide-encoding DNA abundance (4.5 h post-induction vs induction); higher = less antimicrobial activity (less host growth inhibition)
Conditions: time post-induction: 4.5 h; library: site-saturation at positions 5, 18, 19, 20
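Also: peptides expressed intracellularly from a pBAD plasmid library in pooled LB shake-flask culture, induced with 0.3% L-arabinose, DNA abundance read by NGS, three biological replicates, DESeq2 with apeglm shrinkage.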

Sequence	shrunken log2 fold change
RRIRKRPPRLPRPRPRPDSCPRP	-0.0303
RRIRERPPRLPRPRPRPSKTPRP	-0.0833
RRIRGRPPRLPRPRPRPYGFPRP	-0.0296
RRIRRRPPRLPRPRPRPRVCPRP	0.89
RRIRFRPPRLPRPRPRPDPEPRP	-0.0327
RRIRERPPRLPRPRPRPPCVPRP	-0.159
RRIRFRPPRLPRPRPRPSREPRP	1.17
RRIRIRPPRLPRPRPRPITRPRP	0.0378
RRIRMRPPRLPRPRPRPGRGPRP	1.26
RRIRKRPPRLPRPRPRPCCYPRP	0.0681
RRIRERPPRLPRPRPRPINEPRP	-0.281
RRIRYRPPRLPRPRPRPSDGPRP	-0.327
RRIRQRPPRLPRPRPRPYLWPRP	-0.0736
RRIRERPPRLPRPRPRPAKVPRP	-0.182
RRIRCRPPRLPRPRPRPQIVPRP	-0.345
RRIRERPPRLPRPRPRPHVYPRP	-0.764
RRIRDRPPRLPRPRPRPKGDPRP	0.0039
RRIRSRPPRLPRPRPRPEPTPRP	0.467
RRIRVRPPRLPRPRPRPWCDPRP	-0.394
RRIRCRPPRLPRPRPRPQGTPRP	-0.35
RRIRMRPPRLPRPRPRPPIHPRP	0.166
RRIRQRPPRLPRPRPRPYCCPRP	-0.781
RRIRGRPPRLPRPRPRPYVKPRP	-0.417
RRIRIRPPRLPRPRPRPHKRPRP	-0.169
RRIRHRPPRLPRPRPRPYPEPRP	-0.267

Sequence	shrunken log2 fold change
RRIRSRPPRLPRPRPRPYITPRP	-0.535
RRIRQRPPRLPRPRPRPNEGPRP	-0.07
RRIRQRPPRLPRPRPRPMATPRP	0.0329
RRIRARPPRLPRPRPRPILAPRP	0.147
RRIRFRPPRLPRPRPRPWTNPRP	-0.289
RRIRVRPPRLPRPRPRPQTTPRP	0.213
RRIRDRPPRLPRPRPRPNPPPRP	0.2
RRIRERPPRLPRPRPRPDLYPRP	-0.0156
RRIRPRPPRLPRPRPRPQDDPRP	-0.367
RRIRIRPPRLPRPRPRPLLLPRP	-0.597
RRIRLRPPRLPRPRPRPPRPPRP	0.782
RRIRYRPPRLPRPRPRPWWTPRP	-0.333
RRIRSRPPRLPRPRPRPECPPRP	-0.0934
RRIRERPPRLPRPRPRPPEEPRP	0.499
RRIRHRPPRLPRPRPRPLWPPRP	0.27
RRIRDRPPRLPRPRPRPKLTPRP	-0.0121
RRIRHRPPRLPRPRPRPSMIPRP	-0.23
RRIRMRPPRLPRPRPRPMTHPRP	0.173
RRIRIRPPRLPRPRPRPESIPRP	-0.12
RRIRARPPRLPRPRPRPRAMPRP	0.808
RRIRFRPPRLPRPRPRPLLDPRP	-0.0563
RRIRMRPPRLPRPRPRPIRCPRP	0.086
RRIRSRPPRLPRPRPRPALLPRP	0.42
RRIRQRPPRLPRPRPRPILMPRP	0.0271
RRIRDRPPRLPRPRPRPYRFPRP	-0.0178

Sequence	shrunken log2 fold change
RRIRIRPPRLPRPRPRPQTGPRP	-0.139
RRIRPRPPRLPRPRPRPVFVPRP	0.0959
RRIRGRPPRLPRPRPRPHIVPRP	0.106
RRIRWRPPRLPRPRPRPMGHPRP	-0.116
RRIRQRPPRLPRPRPRPPFWPRP	0.504
RRIRPRPPRLPRPRPRPKTYPRP	-0.451
RRIRERPPRLPRPRPRPTEGPRP	0.0858
RRIRQRPPRLPRPRPRPEKAPRP	-0.00536
RRIRVRPPRLPRPRPRPLVDPRP	-0.196
RRIRERPPRLPRPRPRPEYDPRP	-0.00663
RRIRARPPRLPRPRPRPELIPRP	0.606
RRIRRRPPRLPRPRPRPSPIPRP	0.11
RRIRKRPPRLPRPRPRPVWDPRP	2.04
RRIRERPPRLPRPRPRPDSQPRP	-0.0262
RRIRGRPPRLPRPRPRPHELPRP	0.871
RRIRWRPPRLPRPRPRPLIAPRP	0.273
RRIRLRPPRLPRPRPRPGRWPRP	0.411
RRIRPRPPRLPRPRPRPAIRPRP	0.0298
RRIRMRPPRLPRPRPRPAAKPRP	1.26
RRIRVRPPRLPRPRPRPYASPRP	0.00213
RRIRGRPPRLPRPRPRPHHKPRP	-0.122
RRIRTRPPRLPRPRPRPWLIPRP	0.00287
RRIRDRPPRLPRPRPRPGESPRP	-0.00997
RRIRKRPPRLPRPRPRPITFPRP	-0.0147
RRIRPRPPRLPRPRPRPFLKPRP	-0.159

Sequence	shrunken log2 fold change
RRIRPRPPRLPRPRPRPRIMPRP	-0.0771
RRIRMRPPRLPRPRPRPGEMPRP	0.0709
RRIRIRPPRLPRPRPRPQGDPRP	0.0169
RRIRYRPPRLPRPRPRPNFKPRP	0.633
RRIRIRPPRLPRPRPRPCPEPRP	-0.644
RRIRVRPPRLPRPRPRPRWLPRP	0.211
RRIRHRPPRLPRPRPRPKASPRP	-0.0128
RRIRWRPPRLPRPRPRPLSIPRP	-0.0528
RRIRHRPPRLPRPRPRPMDAPRP	0.00875
RRIRWRPPRLPRPRPRPDCFPRP	1.32
RRIRCRPPRLPRPRPRPTPEPRP	0.284
RRIRTRPPRLPRPRPRPYYNPRP	-0.719
RRIRMRPPRLPRPRPRPNRNPRP	-0.292
RRIRRRPPRLPRPRPRPQMEPRP	0.0751
RRIRGRPPRLPRPRPRPAINPRP	0.419
RRIRKRPPRLPRPRPRPVNRPRP	0.0352
RRIRERPPRLPRPRPRPHWWPRP	0.193
RRIRARPPRLPRPRPRPWCTPRP	-0.284
RRIRFRPPRLPRPRPRPYYLPRP	-0.392
RRIRKRPPRLPRPRPRPTITPRP	-0.1
RRIRCRPPRLPRPRPRPLFNPRP	-0.665
RRIRQRPPRLPRPRPRPMNGPRP	-0.0825
RRIRSRPPRLPRPRPRPMPAPRP	0.26
RRIRRRPPRLPRPRPRPCKPPRP	0.151
RRIRQRPPRLPRPRPRPSVNPRP	-0.642

Sequence	shrunken log2 fold change
RRIRVRPPRLPRPRPRPCLMPRP	-0.178
RRIRIRPPRLPRPRPRPINTPRP	-0.954
RRIRQRPPRLPRPRPRPPRSPRP	0.601
RRIRIRPPRLPRPRPRPQTRPRP	-0.196
RRIRWRPPRLPRPRPRPKRDPRP	0.696
RRIRWRPPRLPRPRPRPHHWPRP	0.13
RRIRMRPPRLPRPRPRPFESPRP	-0.00973
RRIRIRPPRLPRPRPRPIHAPRP	-0.00674
RRIRLRPPRLPRPRPRPAKYPRP	-0.694
RRIRVRPPRLPRPRPRPQAIPRP	-0.0973
RRIRQRPPRLPRPRPRPQLWPRP	-0.135
RRIRVRPPRLPRPRPRPLTWPRP	-0.195
RRIRSRPPRLPRPRPRPIPWPRP	-0.121
RRIRWRPPRLPRPRPRPDHKPRP	-0.134
RRIRWRPPRLPRPRPRPRYCPRP	-0.139
RRIRLRPPRLPRPRPRPPQCPRP	-0.313
RRIRNRPPRLPRPRPRPTYVPRP	-0.143
RRIRCRPPRLPRPRPRPVCNPRP	0.0532
RRIRPRPPRLPRPRPRPLWCPRP	-0.158
RRIRKRPPRLPRPRPRPVLIPRP	-0.141
RRIRDRPPRLPRPRPRPMTCPRP	0.0184
RRIRTRPPRLPRPRPRPTLCPRP	0.148
RRIRMRPPRLPRPRPRPIQHPRP	-0.124
RRIRWRPPRLPRPRPRPTVYPRP	0.116
RRIRLRPPRLPRPRPRPLNIPRP	-0.221

Sequence	shrunken log2 fold change
RRIRCRPPRLPRPRPRPTEWPRP	0.063
RRIRDRPPRLPRPRPRPSRMPRP	-0.0207
RRIRHRPPRLPRPRPRPYIEPRP	-0.68
RRIRCRPPRLPRPRPRPGLDPRP	0.191
RRIRKRPPRLPRPRPRPFNCPRP	0.0153
RRIRDRPPRLPRPRPRPDHHPRP	-0.616
RRIRIRPPRLPRPRPRPHATPRP	-0.0163
RRIRPRPPRLPRPRPRPDMCPRP	0.00204
RRIRFRPPRLPRPRPRPHMNPRP	-0.774
RRIRERPPRLPRPRPRPDDLPRP	0.00911
RRIRTRPPRLPRPRPRPGNIPRP	-0.0496
RRIRKRPPRLPRPRPRPVYQPRP	0.131
RRIRQRPPRLPRPRPRPMNNPRP	-0.2
RRIRFRPPRLPRPRPRPNFFPRP	-0.178
RRIRRRPPRLPRPRPRPSHEPRP	-0.252
RRIRQRPPRLPRPRPRPEGVPRP	0.381
RRIRYRPPRLPRPRPRPDEHPRP	-0.0204
RRIRSRPPRLPRPRPRPMVKPRP	-0.0162
RRIRDRPPRLPRPRPRPPFWPRP	0.185
RRIRKRPPRLPRPRPRPIIKPRP	0.232
RRIRRRPPRLPRPRPRPCRHPRP	-0.105
RRIRIRPPRLPRPRPRPPDCPRP	-0.0639
RRIRFRPPRLPRPRPRPEKYPRP	-0.397
RRIRYRPPRLPRPRPRPPYGPRP	-0.54
RRIRLRPPRLPRPRPRPTSMPRP	-0.154
